Values joined by “and” are separate entries in the source; they are usually repeats but may differ in a detail not shown here. Equal values may be shown once.
Experiments:
Assay in all cases: filter binding
[1] = target: T1, Utp23 (Saccharomyces cerevisiae?) (UniProt Q12339); conditions: 20 mM HEPES-KOH pH 7.4, 150 mM NaCl, 1.5 mM MgCl2, 10% glycerol, 30°C, 10 min; nitrocellulose filtration
T1 sequence: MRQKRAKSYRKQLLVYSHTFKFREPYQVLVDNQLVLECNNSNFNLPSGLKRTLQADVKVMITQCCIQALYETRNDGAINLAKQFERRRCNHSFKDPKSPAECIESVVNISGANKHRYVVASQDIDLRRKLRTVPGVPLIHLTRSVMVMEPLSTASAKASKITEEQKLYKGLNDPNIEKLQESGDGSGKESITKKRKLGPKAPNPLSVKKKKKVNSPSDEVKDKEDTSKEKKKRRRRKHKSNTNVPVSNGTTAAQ

[2] = target: T2, Cbf5;Nop10;Gar1;Nhp2 (Saccharomyces cerevisiae;Saccharomyces cerevisiae;Saccharomyces cerevisiae;Saccharomyces cerevisiae) (UniProt P33322+Q6Q547+P28007+P32495); conditions: 20 mM HEPES-KOH pH 7.4, 150 mM NaCl, 1.5 mM MgCl2, 10% glycerol, 30°C, 10 min; nitrocellulose filtration
T2 sequence 1: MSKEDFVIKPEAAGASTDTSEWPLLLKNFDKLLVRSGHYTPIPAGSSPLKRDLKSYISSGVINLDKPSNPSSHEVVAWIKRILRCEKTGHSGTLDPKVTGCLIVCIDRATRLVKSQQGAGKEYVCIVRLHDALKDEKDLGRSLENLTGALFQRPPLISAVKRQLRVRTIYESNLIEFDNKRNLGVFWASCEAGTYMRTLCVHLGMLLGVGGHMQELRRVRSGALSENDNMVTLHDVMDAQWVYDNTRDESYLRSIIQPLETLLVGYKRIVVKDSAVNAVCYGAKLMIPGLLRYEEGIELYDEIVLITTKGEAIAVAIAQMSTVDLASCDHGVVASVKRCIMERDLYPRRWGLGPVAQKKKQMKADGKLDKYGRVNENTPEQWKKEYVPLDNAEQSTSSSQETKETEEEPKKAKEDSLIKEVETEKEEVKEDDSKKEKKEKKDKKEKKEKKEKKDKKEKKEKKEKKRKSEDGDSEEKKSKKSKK
T2 sequence 2: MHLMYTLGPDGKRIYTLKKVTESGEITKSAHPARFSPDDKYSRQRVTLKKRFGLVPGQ
T2 sequence 3: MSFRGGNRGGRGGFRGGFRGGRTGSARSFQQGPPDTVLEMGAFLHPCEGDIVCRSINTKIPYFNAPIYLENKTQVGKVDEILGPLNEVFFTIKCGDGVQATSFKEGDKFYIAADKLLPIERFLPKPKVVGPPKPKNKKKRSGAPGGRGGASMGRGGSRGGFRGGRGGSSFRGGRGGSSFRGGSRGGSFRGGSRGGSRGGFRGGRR
T2 sequence 4: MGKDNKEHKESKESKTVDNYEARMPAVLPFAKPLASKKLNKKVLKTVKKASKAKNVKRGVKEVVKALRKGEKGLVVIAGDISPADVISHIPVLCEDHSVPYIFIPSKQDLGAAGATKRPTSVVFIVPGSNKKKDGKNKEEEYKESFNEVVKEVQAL

[3] = target: T3, Nhp2 (Saccharomyces cerevisiae) (UniProt P32495); conditions: Nhp2 alone, 20 mM HEPES-KOH pH 7.4, 150 mM NaCl, 1.5 mM MgCl2, 10% glycerol, 30°C, 10 min, nitrocellulose filtration
T3 sequence: T2 sequence 4

[4] = target: T4, Cbf5;Nop10;Gar1 (Saccharomyces cerevisiae;Saccharomyces cerevisiae;Saccharomyces cerevisiae) (UniProt P33322+Q6Q547+P28007); conditions: no Nhp2; single replicate; 20 mM HEPES-KOH pH 7.4, 150 mM NaCl, 1.5 mM MgCl2, 10% glycerol, 30°C, 10 min; nitrocellulose filtration
T4 sequence 1: T2 sequence 1
T4 sequence 2: T2 sequence 2
T4 sequence 3: T2 sequence 3

| Substance | Kd [1] [nM] | Kd [2] | Kd ([3]; replicate 1) [nM] | Kd ([3]; replicate 2) [nM] | Kd [4] [nM] |
| --- | --- | --- | --- | --- | --- |
| GGGUUAAUAGGGACGGUCGGGGGCAUCAGUAUUCAAUUGUCAGAGGUGAAAUUCUUGGAUUUAUUGAAGACUAACUACUGCGAAAGCAUUUGCCAAGGACGUUUUC [H22/23] | 8.8 | 84 nM | – | – | – |
| snR81 | 4.7 | – | – | – | – |
| snR30 full-length | 17.5 | 0.9 nM | 116 | 212 | 1.2 |
| mitochondrial tRNAMet | < 2 | 746 nM | – | – | – |
| GGGAUUUUUUCGUGUACUGGAUUUCCAACGGGGCCUUUCCUUCUGGCUAACCUUGAGUCCUUGUGGCUCUUGGCGAACCAGGA [C2-ES6H1] | – | 405 nM and 560 nM | – | – | – |
| GGGCCGACUAGGGAUCGGGUGGUGUUUUUUUAAUGACCCACUCGGCACCUUACGAGAAAUCAAAGUCUUUGGGU [H25/26] | – | 92 nM | – | – | – |

— paper PMC9176245
